Publication PMC11969024 (2025)

B1: peptide HD2 (from tick evasin EVA4) / CCL4 (biotinylated, synthetic) (parent complex)
chain 1: EEDDYTAYAPLTCYFT
chain 2: APMGSDPPTACCFSYTARKLPRNFVVDYYETSSLCSQPAVVFQTKRSKQVCADPSESWVQEYVYDLELN

Variants of: B1
In the case of chain 1 EEDDYTAYAPLTCSFT [chain 1 Y14S], the enrichment is reported as -3.51 log2 (difference from the parental peptide).
In the case of chain 1 EEDDYTAYAPLTCNFT [chain 1 Y14N], the enrichment is reported as -3.47 log2 (difference from the parental peptide).
chain 1 EEDDYTAYAPLTCGFT [chain 1 Y14G] was tested, and the enrichment was -6.07 log2 (difference from the parental peptide).
In the case of chain 1 EEDDYTAYAPLTCRFT [chain 1 Y14R], the enrichment is reported as -4.11 log2 (difference from the parental peptide).
With chain 1 EEDDYTAYAPLTCDFT [chain 1 Y14D] the enrichment was -5.1 log2 (difference from the parental peptide).
chain 1 EEDDYTAYAPLTCQFT [chain 1 Y14Q] was tested, and the enrichment was -2.97 log2 (difference from the parental peptide).
For chain 1 EEDDYTAYAPLTCAFT [chain 1 Y14A], the enrichment was -3.96 log2 (difference from the parental peptide).
For chain 1 EEDDYTAYAPLTCPFT [chain 1 Y14P], the enrichment was -6.84 log2 (difference from the parental peptide).
chain 1 EEDDYTAYAPLTCEFT [chain 1 Y14E] was tested, and the enrichment was -5.52 log2 (difference from the parental peptide).
For chain 1 EEDDYTAYAPLTMYFT [chain 1 C13M], the enrichment was -2.33 log2 (difference from the parental peptide).
In the case of chain 1 EEDDYTAYAPLTPYFT [chain 1 C13P], the enrichment is reported as -9.17 log2 (difference from the parental peptide).
For chain 1 EEDDYTAYAPLTYYFT [chain 1 C13Y], the enrichment was -5.99 log2 (difference from the parental peptide).
With chain 1 EEDDYTAYAPLTEYFT [chain 1 C13E] the enrichment was -9.5 log2 (difference from the parental peptide).
In the case of chain 1 EEDDYTAYAPLTLYFT [chain 1 C13L], the enrichment is reported as -6.3 log2 (difference from the parental peptide).
With chain 1 EEDDYTAYAPLTTYFT [chain 1 C13T] the enrichment was -4.09 log2 (difference from the parental peptide).
With chain 1 EEDDYTAYAPLTKYFT [chain 1 C13K] the enrichment was -8.69 log2 (difference from the parental peptide).
With chain 1 EEDDTTAYAPLTCYFT [chain 1 Y5T] the enrichment was -4.65 log2 (difference from the parental peptide).
In the case of chain 1 EEDDSTAYAPLTCYFT [chain 1 Y5S], the enrichment is reported as -5.86 log2 (difference from the parental peptide).
With chain 1 EEDDRTAYAPLTCYFT [chain 1 Y5R] the enrichment was -5.62 log2 (difference from the parental peptide).
For chain 1 EEDDVTAYAPLTCYFT [chain 1 Y5V], the enrichment was -5.67 log2 (difference from the parental peptide).
chain 1 EEDDETAYAPLTCYFT [chain 1 Y5E] was tested, and the enrichment was -2.05 log2 (difference from the parental peptide).
For chain 1 EEDDFTAYAPLTCYFT [chain 1 Y5F], the enrichment was 0.426 log2 (difference from the parental peptide).
In the case of chain 1 EEDDPTAYAPLTCYFT [chain 1 Y5P], the enrichment is reported as -6.3 log2 (difference from the parental peptide).
chain 1 EEDDCTAYAPLTCYFT [chain 1 Y5C] was tested, and the enrichment was -8.73 log2 (difference from the parental peptide).
For chain 1 EEDDYTAYKPLTCYFT [chain 1 A9K], the enrichment was -3.61 log2 (difference from the parental peptide).
For chain 1 EEDDYTAYEPLTCYFT [chain 1 A9E], the enrichment was 0.657 log2 (difference from the parental peptide).
With chain 1 EEDDYTAYPPLTCYFT [chain 1 A9P] the enrichment was -7.37 log2 (difference from the parental peptide).
For chain 1 EEDDYTAYWPLTCYFT [chain 1 A9W], the enrichment was -3.72 log2 (difference from the parental peptide).
chain 1 EEDDYTAYSPLTCYFT [chain 1 A9S] was tested, and the enrichment was -0.615 log2 (difference from the parental peptide).
In the case of chain 1 EEDDYTAYRPLTCYFT [chain 1 A9R], the enrichment is reported as -1.96 log2 (difference from the parental peptide).
In the case of chain 1 EEDDYTAYTPLTCYFT [chain 1 A9T], the enrichment is reported as -2.45 log2 (difference from the parental peptide).
With chain 1 EEDDYTAYLPLTCYFT [chain 1 A9L] the enrichment was -6 log2 (difference from the parental peptide).
In the case of chain 1 EEDDYTAYIPLTCYFT [chain 1 A9I], the enrichment is reported as -7.98 log2 (difference from the parental peptide).
In the case of chain 1 EEDDYTAYHPLTCYFT [chain 1 A9H], the enrichment is reported as -6.2 log2 (difference from the parental peptide).
For chain 1 EEDDYTAYNPLTCYFT [chain 1 A9N], the enrichment was -4.06 log2 (difference from the parental peptide).
With chain 1 YEDDYTAYAPLTCYFT [chain 1 E1Y] the enrichment was -1.6 log2 (difference from the parental peptide).
In the case of chain 1 PEDDYTAYAPLTCYFT [chain 1 E1P], the enrichment is reported as -1.59 log2 (difference from the parental peptide).
With chain 1 QEDDYTAYAPLTCYFT [chain 1 E1Q] the enrichment was -0.262 log2 (difference from the parental peptide).
With chain 1 AEDDYTAYAPLTCYFT [chain 1 E1A] the enrichment was -0.519 log2 (difference from the parental peptide).
With chain 1 EEYDYTAYAPLTCYFT [chain 1 D3Y] the enrichment was -1.16 log2 (difference from the parental peptide).
chain 1 EETDYTAYAPLTCYFT [chain 1 D3T] was tested, and the enrichment was -2.72 log2 (difference from the parental peptide).
For chain 1 EEHDYTAYAPLTCYFT [chain 1 D3H], the enrichment was -1.73 log2 (difference from the parental peptide).
chain 1 EEPDYTAYAPLTCYFT [chain 1 D3P] was tested, and the enrichment was -2.56 log2 (difference from the parental peptide).
For chain 1 EEDDYTAYAPLTCYFA [chain 1 T16A], the enrichment was 1.47 log2 (difference from the parental peptide).
For chain 1 EEDDYTAYAPLTCYFP [chain 1 T16P], the enrichment was 1.45 log2 (difference from the parental peptide).
In the case of chain 1 EEDDYTAYAPLTCYFH [chain 1 T16H], the enrichment is reported as 0.117 log2 (difference from the parental peptide).
With chain 1 EEDDYTAYAPLTCYFF [chain 1 T16F] the enrichment was -0.0684 log2 (difference from the parental peptide).
In the case of chain 1 EEDDYTAYAPLTCYFW [chain 1 T16W], the enrichment is reported as -0.489 log2 (difference from the parental peptide).
With chain 1 EEDDYTAYAPLTCYFC [chain 1 T16C] the enrichment was -0.0497 log2 (difference from the parental peptide).
In the case of chain 1 EEDDYTAYAPLTCYFM [chain 1 T16M], the enrichment is reported as 0.277 log2 (difference from the parental peptide).
chain 1 EEDDYTAYAPLTCYFR [chain 1 T16R] was tested, and the enrichment was -0.298 log2 (difference from the parental peptide).
With chain 1 EEDDYTAYAPLTCYFL [chain 1 T16L] the enrichment was 0.489 log2 (difference from the parental peptide).
For chain 1 EEDDYTAYAPLTCYFE [chain 1 T16E], the enrichment was 0.827 log2 (difference from the parental peptide).
For chain 1 EEDLYTAYAPLTCYFT [chain 1 D4L], the enrichment was -3.89 log2 (difference from the parental peptide).
chain 1 EEDSYTAYAPLTCYFT [chain 1 D4S] was tested, and the enrichment was -3.38 log2 (difference from the parental peptide).
In the case of chain 1 EEDPYTAYAPLTCYFT [chain 1 D4P], the enrichment is reported as -1.94 log2 (difference from the parental peptide).
In the case of chain 1 EEDKYTAYAPLTCYFT [chain 1 D4K], the enrichment is reported as -5.45 log2 (difference from the parental peptide).
chain 1 EEDAYTAYAPLTCYFT [chain 1 D4A] was tested, and the enrichment was -3.33 log2 (difference from the parental peptide).
With chain 1 EEDYYTAYAPLTCYFT [chain 1 D4Y] the enrichment was -0.805 log2 (difference from the parental peptide).
For chain 1 EEDVYTAYAPLTCYFT [chain 1 D4V], the enrichment was -4.25 log2 (difference from the parental peptide).
In the case of chain 1 EEDNYTAYAPLTCYFT [chain 1 D4N], the enrichment is reported as -2.63 log2 (difference from the parental peptide).
With chain 1 EEDDYTAYAPETCYFT [chain 1 L11E] the enrichment was -2.34 log2 (difference from the parental peptide).
In the case of chain 1 EEDDYTAYAPHTCYFT [chain 1 L11H], the enrichment is reported as 1.71 log2 (difference from the parental peptide).
In the case of chain 1 EEDDYTAYAPSTCYFT [chain 1 L11S], the enrichment is reported as -0.188 log2 (difference from the parental peptide).
chain 1 EEDDYTAYAPFTCYFT [chain 1 L11F] was tested, and the enrichment was -0.923 log2 (difference from the parental peptide).
For chain 1 EEDDYTAYAPNTCYFT [chain 1 L11N], the enrichment was -3.21 log2 (difference from the parental peptide).
In the case of chain 1 EEDDYTAYAPGTCYFT [chain 1 L11G], the enrichment is reported as -4.26 log2 (difference from the parental peptide).
In the case of chain 1 EEDDYTAYAPPTCYFT [chain 1 L11P], the enrichment is reported as -7.67 log2 (difference from the parental peptide).
With chain 1 EEDDYTTYAPLTCYFT [chain 1 A7T] the enrichment was -0.191 log2 (difference from the parental peptide).
In the case of chain 1 EEDDYTKYAPLTCYFT [chain 1 A7K], the enrichment is reported as 1.68 log2 (difference from the parental peptide).
chain 1 EEDDYTGYAPLTCYFT [chain 1 A7G] was tested, and the enrichment was 0.187 log2 (difference from the parental peptide).
In the case of chain 1 EEDDYTLYAPLTCYFT [chain 1 A7L], the enrichment is reported as -0.0909 log2 (difference from the parental peptide).
chain 1 EEDDYTVYAPLTCYFT [chain 1 A7V] was tested, and the enrichment was -1.76 log2 (difference from the parental peptide).
With chain 1 EEDDYTPYAPLTCYFT [chain 1 A7P] the enrichment was 1.22 log2 (difference from the parental peptide).
For chain 1 EEDDYTMYAPLTCYFT [chain 1 A7M], the enrichment was 2.06 log2 (difference from the parental peptide).
chain 1 EEDDYTIYAPLTCYFT [chain 1 A7I] was tested, and the enrichment was -0.497 log2 (difference from the parental peptide).
chain 1 EEDDYTASAPLTCYFT [chain 1 Y8S] was tested, and the enrichment was -2.96 log2 (difference from the parental peptide).
In the case of chain 1 EEDDYTAWAPLTCYFT [chain 1 Y8W], the enrichment is reported as -0.806 log2 (difference from the parental peptide).
chain 1 EEDDYTAEAPLTCYFT [chain 1 Y8E] was tested, and the enrichment was -5.75 log2 (difference from the parental peptide).
For chain 1 EEDDYTAIAPLTCYFT [chain 1 Y8I], the enrichment was -7.37 log2 (difference from the parental peptide).
chain 1 EEDDYTAFAPLTCYFT [chain 1 Y8F] was tested, and the enrichment was 0.697 log2 (difference from the parental peptide).
chain 1 EEDDYTAAAPLTCYFT [chain 1 Y8A] was tested, and the enrichment was -1.67 log2 (difference from the parental peptide).
chain 1 EEDDYTALAPLTCYFT [chain 1 Y8L] was tested, and the enrichment was -7.61 log2 (difference from the parental peptide).
For chain 1 EEDDYTATAPLTCYFT [chain 1 Y8T], the enrichment was -6.05 log2 (difference from the parental peptide).
With chain 1 EADDYTAYAPLTCYFT [chain 1 E2A] the enrichment was -0.79 log2 (difference from the parental peptide).
chain 1 ELDDYTAYAPLTCYFT [chain 1 E2L] was tested, and the enrichment was -1.83 log2 (difference from the parental peptide).
In the case of chain 1 ESDDYTAYAPLTCYFT [chain 1 E2S], the enrichment is reported as -2.25 log2 (difference from the parental peptide).
With chain 1 EDDDYTAYAPLTCYFT [chain 1 E2D] the enrichment was 1.08 log2 (difference from the parental peptide).
With chain 1 ETDDYTAYAPLTCYFT [chain 1 E2T] the enrichment was -2.75 log2 (difference from the parental peptide).
For chain 1 EKDDYTAYAPLTCYFT [chain 1 E2K], the enrichment was -3.72 log2 (difference from the parental peptide).
With chain 1 EEDDYTAYAPLDCYFT [chain 1 T12D] the enrichment was -0.0833 log2 (difference from the parental peptide).
With chain 1 EEDDYTAYAPLECYFT [chain 1 T12E] the enrichment was -1.15 log2 (difference from the parental peptide).
chain 1 EEDDYTAYAPLNCYFT [chain 1 T12N] was tested, and the enrichment was 1.46 log2 (difference from the parental peptide).
chain 1 EEDDYTAYAPLYCYFT [chain 1 T12Y] was tested, and the enrichment was 2.43 log2 (difference from the parental peptide).
For chain 1 EEDDYTAYAPLTCYET [chain 1 F15E], the enrichment was -1.26 log2 (difference from the parental peptide).
chain 1 EEDDYTAYAPLTCYNT [chain 1 F15N] was tested, and the enrichment was -0.875 log2 (difference from the parental peptide).
In the case of chain 1 EEDDYTAYAPLTCYYT [chain 1 F15Y], the enrichment is reported as 0.0726 log2 (difference from the parental peptide).
For chain 1 EEDDYTAYAPLTCYTT [chain 1 F15T], the enrichment was 1.23 log2 (difference from the parental peptide).
In the case of chain 1 EEDDYTAYAPLTCYLT [chain 1 F15L], the enrichment is reported as 0.921 log2 (difference from the parental peptide).
chain 1 EEDDYTAYAPLTCYQT [chain 1 F15Q] was tested, and the enrichment was 0.832 log2 (difference from the parental peptide).
In the case of chain 1 EEDDYTAYAPLTCYHT [chain 1 F15H], the enrichment is reported as 0.795 log2 (difference from the parental peptide).
With chain 1 EEDDYTAYAPLTCYRT [chain 1 F15R] the enrichment was 0.256 log2 (difference from the parental peptide).
chain 1 EEDDYTAYAGLTCYFT [chain 1 P10G] was tested, and the enrichment was -6.62 log2 (difference from the parental peptide).
chain 1 EEDDYTAYATLTCYFT [chain 1 P10T] was tested, and the enrichment was -7.43 log2 (difference from the parental peptide).
In the case of chain 1 EEDDYTAYAQLTCYFT [chain 1 P10Q], the enrichment is reported as -4.96 log2 (difference from the parental peptide).
chain 1 EEDDYTAYADLTCYFT [chain 1 P10D] was tested, and the enrichment was -2.89 log2 (difference from the parental peptide).
For chain 1 EEDDYSAYAPLTCYFT [chain 1 T6S], the enrichment was 2.87 log2 (difference from the parental peptide).
chain 1 EEDDYRAYAPLTCYFT [chain 1 T6R] was tested, and the enrichment was -0.342 log2 (difference from the parental peptide).
In the case of chain 1 EEDDYWAYAPLTCYFT [chain 1 T6W], the enrichment is reported as 0.361 log2 (difference from the parental peptide).
In the case of chain 1 EEDDYNAYAPLTCYFT [chain 1 T6N], the enrichment is reported as 1.16 log2 (difference from the parental peptide).
With chain 1 EEDDYQAYAPLTCYFT [chain 1 T6Q] the enrichment was 0.872 log2 (difference from the parental peptide).
chain 1 EEDDYGAYAPLTCYFT [chain 1 T6G] was tested, and the enrichment was 2.91 log2 (difference from the parental peptide).
